B1: KCNA4 (parent)
chain: YQLGEEALLKFREDEGFVREEEDR
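Also: lentivirally expressed fusions sorted by FACS into six bins by GFP to DsRed ratio, PSI derived from sequencing read proportions per bin multiplied by bin number.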

The variants in the data set derive from B1. As to the kind of experiment: protein stability index of a GFP-peptide fusion (GPS, HEK-293T) (PSI 1-6); higher = more stable. As to conditions: c terminus: a fixed tail appended.
As to YQLGEEALLKFKEDEGFVREEEDR [R12K], the protein stability index was 4.92.

Regarding YQLGEEALLKFVEDEGFVREEEDR [R12V], the protein stability index was 3.81.

YQLGEEALLKFQEDEGFVREEEDR [R12Q]: the protein stability index came to 4.59.

Consider YQLGEEALLKFEEDEGFVREEEDR [R12E], for which the protein stability index stood at 5.21.

For the variant YQLGEEALLKFHEDEGFVREEEDR [R12H], the protein stability index came to 4.75.

On to YQLGEEALLKFPEDEGFVREEEDR [R12P], for which the protein stability index was found to be 5.62.

Turning to YQLGEEALLKIREDEGFVREEEDR [F11I], the protein stability index came to 5.12.

Turning to YQLGEEALLKVREDEGFVREEEDR [F11V], the protein stability index is 5.35.

On to YQLGEEALLKDREDEGFVREEEDR [F11D], for which the protein stability index was 5.83.

YQLGEEALLKSREDEGFVREEEDR [F11S]: the protein stability index amounted to 5.44.

On to YQLGEEALLKLREDEGFVREEEDR [F11L], for which the protein stability index came to 5.38.

On to YQLGEEALLKKREDEGFVREEEDR [F11K], for which the protein stability index worked out at 5.48.

For YQLGEEALLKQREDEGFVREEEDR [F11Q], the protein stability index was 5.1.

For YQLGEEALLKFREDEGFVREHEDR [E21H], the protein stability index was determined as 4.18.

Take YQLGEEALLKFREDEGFVREIEDR [E21I]: the protein stability index turned out to be 4.07.

Regarding YQLGEEALLKFREDEGFVREDEDR [E21D], the protein stability index is 4.4.

Consider YQLGEEALLKFREDEGFVREGEDR [E21G], for which the protein stability index was 4.43.

In the case of YQLGEEALLKFREDEGFVREAEDR [E21A], the protein stability index was determined as 4.45.

YQLGEEALLKFREDEVFVREEEDR [G16V]: the protein stability index came to 4.5.

As for YQLGWEALLKFREDEGFVREEEDR [E5W], the protein stability index worked out at 1.63.

For YQLGGEALLKFREDEGFVREEEDR [E5G], the protein stability index came out at 3.87.

For YQLGYEALLKFREDEGFVREEEDR [E5Y], the protein stability index was determined as 3.21.

YQLGCEALLKFREDEGFVREEEDR [E5C]: the protein stability index amounted to 4.32.

Regarding YQLGETALLKFREDEGFVREEEDR [E6T], the protein stability index came out at 4.32.

In the case of YQLGEHALLKFREDEGFVREEEDR [E6H], the protein stability index was 4.33.

As for YQLGEPALLKFREDEGFVREEEDR [E6P], the protein stability index was determined as 4.92.

Consider YQLGEEALLKFRHDEGFVREEEDR [E13H], for which the protein stability index turned out to be 3.96.

YQLGEEALLKFRRDEGFVREEEDR [E13R]: the protein stability index came out at 4.54.

Turning to YQLGEEALLKFRADEGFVREEEDR [E13A], the protein stability index is 3.23.

Regarding YQLREEALLKFREDEGFVREEEDR [G4R], the protein stability index is 4.56.

With YQLNEEALLKFREDEGFVREEEDR [G4N], the protein stability index is 4.28.

Turning to YQLFEEALLKFREDEGFVREEEDR [G4F], the protein stability index is 4.28.

As to YQLDEEALLKFREDEGFVREEEDR [G4D], the protein stability index turned out to be 4.43.

In the case of YQLIEEALLKFREDEGFVREEEDR [G4I], the protein stability index was determined as 4.83.

Regarding YQLSEEALLKFREDEGFVREEEDR [G4S], the protein stability index was 3.81.

Consider YQLAEEALLKFREDEGFVREEEDR [G4A], for which the protein stability index was 5.24.

With YQLQEEALLKFREDEGFVREEEDR [G4Q], the protein stability index is 5.08.

Regarding YQLGEEQLLKFREDEGFVREEEDR [A7Q], the protein stability index was 4.1.

For YQLGEELLLKFREDEGFVREEEDR [A7L], the protein stability index came to 4.8.

Take YQLGEECLLKFREDEGFVREEEDR [A7C]: the protein stability index turned out to be 4.89.

Consider YQLGEEMLLKFREDEGFVREEEDR [A7M], for which the protein stability index is 4.14.

Consider YQLGEEGLLKFREDEGFVREEEDR [A7G], for which the protein stability index amounted to 4.64.

Regarding YQLGEESLLKFREDEGFVREEEDR [A7S], the protein stability index is 4.52.

Take YQLGEEALLKFREDEGFVREEEDF [R24F]: the protein stability index is 4.27.

Regarding YQLGEEALLKFREDEGFVREEEDA [R24A], the protein stability index stood at 4.69.

Regarding YQLGEEALLKFREDEGFVREEEDT [R24T], the protein stability index is 4.71.

Consider YQLGEEALLKFREDEGFVREEEDM [R24M], for which the protein stability index is 4.88.

In the case of YQLGEEALLKFREDEGFVREEEDE [R24E], the protein stability index turned out to be 5.1.

With YQAGEEALLKFREDEGFVREEEDR [L3A], the protein stability index worked out at 5.22.

In the case of YQMGEEALLKFREDEGFVREEEDR [L3M], the protein stability index is 3.76.

As to YQCGEEALLKFREDEGFVREEEDR [L3C], the protein stability index was determined as 4.38.

For the variant YQNGEEALLKFREDEGFVREEEDR [L3N], the protein stability index was determined as 5.68.

Turning to YQLGEEALLHFREDEGFVREEEDR [K10H], the protein stability index is 4.74.

For the variant YQLGEEALLMFREDEGFVREEEDR [K10M], the protein stability index was 3.59.

Consider YQLGEEALLQFREDEGFVREEEDR [K10Q], for which the protein stability index amounted to 4.83.

For YQLGEEASLKFREDEGFVREEEDR [L8S], the protein stability index was 5.47.

As to YQLGEEANLKFREDEGFVREEEDR [L8N], the protein stability index turned out to be 5.5.

For the variant YQLGEEALLKFREDEGHVREEEDR [F17H], the protein stability index worked out at 4.71.

For the variant YQLGEEALLKFREDEGVVREEEDR [F17V], the protein stability index was determined as 4.53.

With YQLGEEALLKFREDEGEVREEEDR [F17E], the protein stability index stood at 4.79.

In the case of YQLGEEALLKFREDEGAVREEEDR [F17A], the protein stability index is 4.78.

Consider YQLGEEALLKFREMEGFVREEEDR [D14M], for which the protein stability index was 4.27.

For YQLGEEALLKFREYEGFVREEEDR [D14Y], the protein stability index was found to be 3.59.

As to YQLGEEALLKFREVEGFVREEEDR [D14V], the protein stability index worked out at 3.39.

Consider YNLGEEALLKFREDEGFVREEEDR [Q2N], for which the protein stability index was determined as 5.23.

With YILGEEALLKFREDEGFVREEEDR [Q2I], the protein stability index was determined as 4.43.

YCLGEEALLKFREDEGFVREEEDR [Q2C]: the protein stability index was 4.91.

As to YMLGEEALLKFREDEGFVREEEDR [Q2M], the protein stability index came to 4.79.

YQLGEEALLKFREDEGFIREEEDR [V18I]: the protein stability index was 4.5.

On to YQLGEEALLKFREDEGFWREEEDR [V18W], for which the protein stability index came out at 3.94.

For YQLGEEALLKFREDEGFEREEEDR [V18E], the protein stability index worked out at 4.67.

For the variant YQLGEEALLKFREDEGFDREEEDR [V18D], the protein stability index worked out at 4.83.

In the case of YQLGEEALLKFREDEGFLREEEDR [V18L], the protein stability index stood at 4.44.

As to YQLGEEALLKFREDEGFVREERDR [E22R], the protein stability index is 3.95.

In the case of YQLGEEALLKFREDEGFVREENDR [E22N], the protein stability index was 3.85.

As to YQLGEEALLKFREDEGFVREEKDR [E22K], the protein stability index is 3.99.

In the case of YQLGEEALLKFREDEGFVREEFDR [E22F], the protein stability index was determined as 3.82.

As for YQLGEEALLKFREDEGFVREELDR [E22L], the protein stability index was 3.99.

With YQLGEEALYKFREDEGFVREEEDR [L9Y], the protein stability index stood at 5.09.

Regarding YQLGEEALLKFREDEGFVRDEEDR [E20D], the protein stability index amounted to 4.38.

With YQLGEEALLKFREDEGFVRVEEDR [E20V], the protein stability index amounted to 4.14.

Regarding YQLGEEALLKFREDEGFVRREEDR [E20R], the protein stability index is 4.1.

As to YQLGEEALLKFREDEGFVAEEEDR [R19A], the protein stability index is 4.91.

YQLGEEALLKFREDEGFVGEEEDR [R19G]: the protein stability index was found to be 4.85.

Take YQLGEEALLKFREDEGFVREEEHR [D23H]: the protein stability index came to 3.94.

YQLGEEALLKFREDEGFVREEENR [D23N]: the protein stability index is 4.05.

On to YQLGEEALLKFREDEGFVREEETR [D23T], for which the protein stability index is 4.11.

Turning to YQLGEEALLKFREDEGFVREEEWR [D23W], the protein stability index amounted to 3.51.

Consider DQLGEEALLKFREDEGFVREEEDR [Y1D], for which the protein stability index amounted to 5.79.

As for FQLGEEALLKFREDEGFVREEEDR [Y1F], the protein stability index is 4.45.

Turning to GQLGEEALLKFREDEGFVREEEDR [Y1G], the protein stability index was 5.95.

Regarding AQLGEEALLKFREDEGFVREEEDR [Y1A], the protein stability index was 5.7.

Turning to YQLGEEALLKFREDLGFVREEEDR [E15L], the protein stability index is 3.88.

Take YQLGEEALLKFREDGGFVREEEDR [E15G]: the protein stability index turned out to be 4.42.

Source of the values: the supplement of paper PMC10567573.
